Common to all, as to assay: purified protein
Assay type in all cases: biochemical, Entamoeba histolytica
Common to all, as to conditions: opposite cognate template base, primer-template DNA, optimised buffer (Mg2+ optimum 2.5 mM, pH optimum 7.5), 37 °C

Substrate in series [1]: Cc1cn([C@H]2C[C@H](O)[C@@H](COP(=O)(O)OP(=O)(O)OP(=O)(O)O)O2)c(=O)[nH]c1=O
Substrate in series [2]: Nc1nc2c(ncn2[C@H]2C[C@H](O)[C@@H](COP(=O)(O)OP(=O)(O)OP(=O)(O)O)O2)c(=O)[nH]1
Substrate in series [3]: Nc1ccn([C@H]2C[C@H](O)[C@@H](COP(=O)(O)OP(=O)(O)OP(=O)(O)O)O2)c(=O)n1
Substrate in series [4]: Nc1ncnc2c1ncn2[C@H]1C[C@H](O)[C@@H](COP(=O)(O)OP(=O)(O)OP(=O)(O)O)O1

The source of these data is publication PMC2919377, “A Nuclear Family A DNA Polymerase from Entamoeba histolytica Bypasses Thymine Glycol” (PLoS Neglected Tropical Diseases, 2010).

B1: EhDNApolA (Entamoeba histolytica HM-1:IMSS) (protein)
chain: MEKTPRNSVDDLLMLFEDVKDNNKPVDYTKLESEETKKTENKERRKSLSINVNDEIPEKRKRKSIKQEGTPQPKVGAVFEIQYQHLPNKIDISELKELLEKIPKMEGKIMFNEKNLEQSIVINCTNNGIHALIGNSYVVLKKELLPEIINSRRLIIVYNLMEEIKNYRNNIKCILENFNTNNTIFDTYIGASTIDPGSVDGKTFSQICLVYEVIINKSTIEERLKQTRRLAVKEVEVMNNDNMIKVFQEQEMIIDGVLIEMNYCNEFKIDNKLLNEQRKKLIEEQHKIEMETKKIIGRTINLSSPEQVKKELIRFNIGIDGIKKKATTDKKILSQSDHPFAKLVLEYRKISKLLSGVIEQIRKCCIKSGDEYFIRTTWSQTAIVTGRIQSKSPNLQQIPKQSFSLPQCLIIPRDLFITHNNNTFVAIDYNQIELRILADFTKDHHLIEFFKSNTDVHRLIAAHWLKKNVNDITDDERRKAKTIVYGCIYGIGPFSLADQLHVSLDESKAFLESFLDQFPAFKKWKEETITNASTTGFVHTINNRRRRINNLTDCNDKKTVAESKRIAVNSPIQGTAADIIKMCMIEIFKKLHSSWVGVQLLLNIHDEIVLEVPDHLLDEVCVTLKHLMEHIVKLEVPLVVTVETGKKWGSLHPYNLN
notes: full-length ORF, 657 aa, about 75 kDa, N-terminal 6-His tag (pCOLD I), expressed in E. coli BL21 DE3-Rosetta II; Ni-NTA and phosphocellulose
B1: the Km in “purified protein [1]” was 1.49 ± 0.3 µM; in the series “purified protein [2]”, 1.56 ± 0.2 µM; in “purified protein [3]” it was 2.1 ± 0.3 µM; in “purified protein [4]” it was 2.3 ± 0.2 µM. For the same protein, the Vmax is 0.0029 µmol/min in the series “purified protein [1]”, 0.0035 µmol/min in “purified protein [2]”, 0.0032 µmol/min in “purified protein [3]” and 0.0033 µmol/min in “purified protein [4]”.

As usually defined, the Km is the concentration of substrate that gives half-maximal velocity. The Vmax is the rate approached at saturating substrate.
